For experiment [1], the target named is 非洲猪瘟病毒(ASFV)灭活抗原 (African swine fever virus).
For experiment [2] the target is unchanged. This is another data set of the same source.
The target is the same in experiment [3]. This is another data set of the same source.

Like-named read-outs stand apart in the source and are kept apart here.

This note sets out measurements from patent CN113278066A.

B1: 全猪源非洲猪瘟病毒单克隆抗体 κ-9B (antibody, V domains shown)
VH: EGKLVESGGGLVQPGGSLRLSCVGSGFDFINTYMNWVRQAPGKGLEWLATISTKGISTYYADSVKGRFTISKDNSQNTADLLMRILRIEDTVRYFCAMSDSGGRNCVAGDSSCPHYYGMNLWGPGVEVVVSS
VL: AIQLTQSPASLAASLGDTVSVTCRASQSISSYLAWYQQQPGKAPKLLIVAASTLQSGVPSRFKGSGSGTDFTLTISGLQAEDVATYYCFQRNSVPWTFGQGTKLELKA
Regarding B1, the OD值 in experiment [1] was 0.733 OD450nm; in experiment [2], 0.717 OD450nm; in experiment [3], 1.91 OD450nm.
